Results taken from patent US20240317859A1 (published 2024).

B1: X3-KSL HM268-K8 (antibody)
chain 1: QVQLVQSGPEVKKPGASVKVVCKTSGYTFTSYYIQWLKQRPGQGLEWIGWIYFGDASTKYNEKFKGRVTMTADKSTSTAYMELRSLRSDDTAVYYCASYYGSYFDYWGQGTTVTVSSASTKGPSVFPLAPSSKSTSGGTAALGCLVKDYFPEPVTVSWNSGALTSGVHTFPAVLQSSGLYSLSSVVTVPSSSLGTQTYICNVNHKPSNTKVDKKVEPKSCDKTHTCPPCPAPELLGGPDVFLFPPKPKDTLMISRTPEVTCVVVDVGDEDPEVKFNWYVDGVEVHNAKTKPREEQYNSTYRVVSVLTVLHQDWLNGKEYKCAVSNKAYPAPIEKTISKAKGQPREPQVYTLPPSRDELTKNQVSLTCLVKGFYPSDIAVEWESNGQPENNYKTTPPVLDSDGSFFLYSKLTVDKSRWQQGNVFSCSVMHEALHNHYTQKSLSLSPGK
chain 2: DIQMTQSPSSLSASVGDRVTITCRASQDISNYLNWYQQKPDGTVKLLIYSTSRLHSGVPSRFSGSGSGTDYTLTISSLQPEDFATYYCQQGSTLPFTFGQGTKLEIKRTVAAPSVFIFPPSDEQLKSGTASVVCLLNNFYPREAKVQWKVDNALQSGNSQESVTEQDSKDSTYSLSSTLTLSKADYEKHKVYACEVTHQGLSSPVTKSFNRGEC
B2: X3-KSI HM268-K8 (antibody)
chain 1: QVQLVQSGPEVKKPGASVKVVCKTSGYTFTSYYIQWLKQRPGQGLEWIGWIYFGDASTKYNEKFKGRVTMTADKSTSTAYMELRSLRSDDTAVYYCASYYGSYFDYWGQGTTVTVSSASTKGPSVFPLAPSSKSTSGGTAALGCLVKDYFPEPVTVSWNSGALTSGVHTFPAVLQSSGLYSLSSVVTVPSSSLGTQTYICNVNHKPSNTKVDKKVEPKSCDKTHTCPPCPAPELLGGPDVFLFPPKPKDTLMISRTPEVTCVVVDVGDEDPEVKFNWYVDGVEVHNAKTKPREEQYNSTYRVVSVLTVLHQDWLNGKEYKCAVSNKALPAPEEKTISKAKGQPREPQVYTLPPSRDELTKNQVSLTCLVKGFYPSDIAVEWESNGQPENNYKTTPPVLDSDGSFFLYSKLTVDKSRWQQGNVFSCSVMHEALHNHYTQKSLSLSPGK
chain 2: DIQMTQSPSSLSASVGDRVTITCRASQDISNYLNWYQQKPDGTVKLLIYSTSRLHSGVPSRFSGSGSGTDYTLTISSLQPEDFATYYCQQGSTLPFTFGQGTKLEIKRTVAAPSVFIFPPSDEQLKSGTASVVCLLNNFYPREAKVQWKVDNALQSGNSQESVTEQDSKDSTYSLSSTLTLSKADYEKHKVYACEVTHQGLSSPVTKSFNRGEC
B3: X3-KE HM268-K8 (antibody)
chain 1: QVQLVQSGPEVKKPGASVKVVCKTSGYTFTSYYIQWLKQRPGQGLEWIGWIYFGDASTKYNEKFKGRVTMTADKSTSTAYMELRSLRSDDTAVYYCASYYGSYFDYWGQGTTVTVSSASTKGPSVFPLAPSSKSTSGGTAALGCLVKDYFPEPVTVSWNSGALTSGVHTFPAVLQSSGLYSLSSVVTVPSSSLGTQTYICNVNHKPSNTKVDKKVEPKSCDKTHTCPPCPAPELLGGPDVFLFPPKPKDTLMISRTPEVTCVVVDVSDEDPEVKFNWYVDGVEVHNAKTKPRAEQYNSTYRVVSVLTVLHQDWLNGKEYKCAVSNKALPAPIEKTISKAKGQPREPQVYTLPPSRDELTKNQVSLTCLVKGFYPSDIAVEWESNGQPENNYKTTPPVLDSDGSFFLYSKLTVDKSRWQQGNVFSCSVMHEALHNHYTQKSLSLSPGK
chain 2: DIQMTQSPSSLSASVGDRVTITCRASQDISNYLNWYQQKPDGTVKLLIYSTSRLHSGVPSRFSGSGSGTDYTLTISSLQPEDFATYYCQQGSTLPFTFGQGTKLEIKRTVAAPSVFIFPPSDEQLKSGTASVVCLLNNFYPREAKVQWKVDNALQSGNSQESVTEQDSKDSTYSLSSTLTLSKADYEKHKVYACEVTHQGLSSPVTKSFNRGEC

Tests used:
[1] = biological target: T1, FcγRIIB/C (CD32b/c) (FcγRIIB) (R&D Systems) (UniProt P31994 46-217); test: SPR
T1 chain: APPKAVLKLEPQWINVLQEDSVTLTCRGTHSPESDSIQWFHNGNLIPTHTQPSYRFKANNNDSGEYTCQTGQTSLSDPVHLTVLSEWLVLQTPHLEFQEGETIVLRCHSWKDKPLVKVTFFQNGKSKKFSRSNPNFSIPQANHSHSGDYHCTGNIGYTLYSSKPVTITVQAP

[2] = biological target: Fc gamma RIIIA/CD16a, CF (FcγRIIIA(V158)) (R&D Systems); test: SPR
Chain of Fc gamma RIIIA/CD16a, CF (FcγRIIIA(V158)) (R&D Systems) (chain, as listed by the source): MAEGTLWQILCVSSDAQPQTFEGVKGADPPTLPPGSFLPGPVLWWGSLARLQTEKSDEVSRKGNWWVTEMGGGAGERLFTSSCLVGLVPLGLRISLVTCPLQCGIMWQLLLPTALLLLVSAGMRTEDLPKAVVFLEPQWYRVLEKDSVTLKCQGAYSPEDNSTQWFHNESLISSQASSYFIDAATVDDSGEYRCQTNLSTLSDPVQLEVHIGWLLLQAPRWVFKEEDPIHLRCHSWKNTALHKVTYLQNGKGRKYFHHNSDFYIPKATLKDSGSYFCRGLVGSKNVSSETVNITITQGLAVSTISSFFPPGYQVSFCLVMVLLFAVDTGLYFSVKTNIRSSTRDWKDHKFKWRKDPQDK

| Binder | Kd [1] [nM] | Kd [2] [nM] |
| --- | --- | --- |
| B1 | 1240 | 3460 |
| B2 | 1640 | 265 |
| B3 | 1110 | 305 |
